Reference: article PMC10899660 (2024)

B1: Recombinant Cyclin H (CCNH) protein with a C-HIS tag (natural protein)
chain: MYHNSSQKRHWTFSSEEQLARLRADANRKFRCKAVANGKVLPNDPVFLEPHEEMTLCKYYEKRLLEFCSVFKPAMPRSVVGTACMYFKRFYLNNSVMEYHPRIIMLTCAFLACKVDEFNVSSPQFVGNLRESPLGQEKALEQILEYELLLIQQLNFHLIVHNPYRPFEGFLIDLKTRYPILENPEILRKTADDFLNRIALTDAYLLYTPSQIALTAILSSASRAGITMESYLSESLMLKENRTCLSQLLDIMKSMRNLVKKYEPPRSEEVAVLKQKLERCHSAELALNVITKKRKGYEDDDYVSKKSKHEEEEWTDDDLVESL

What was measured:
Test in all cases: SPR
[1] = target: B1
[2] = target: B1
Ece1-III = target: Ece1-III

Binder	Kd [1] [µM]	koff [2] [s⁻¹]	Kd (Ece1-III) [µM]	koff (Ece1-III) [s⁻¹]
DGANDDVANAVVRLPEIVARVATGVQQSIENAKR [Ece1-V, synthetic peptide]	3.16	0.000719	–	–
EDIDSVVAGIIADMPFVVRAVDTAMTSVASTKR [Ece1-IV, synthetic peptide]	5.98	0.000297	–	–
DVAPAAPAAPADQAPTVPAPQEFNTAITKR [Ece1-II, synthetic peptide]	9.13	0.00415	–	–
B1	–	–	0.0172	0.00171
